Data: PMC11203950, “Folding and Binding Kinetics of the Tandem of SH2 Domains from SHP2” (International Journal of Molecular Sciences, 2024)

Columns and labels:
[1] = biological target: T1, NSH2 domain (Homo sapiens, UniProt Q06124); assay: Kinetic binding (stopped-flow, FRET Trp-dansyl) to the isolated NSH2 domain
T1 construct: The constructs encoding the isolated NSH2 domain, the isolated CSH2 domain, and the NSH2-CSH2 tandem were subcloned in a pET28b+ plasmid vector; made in house; host or cells: Escherichia coli BL21 (DE3)
T1 sequence (Q06124 6-102 limits assumed): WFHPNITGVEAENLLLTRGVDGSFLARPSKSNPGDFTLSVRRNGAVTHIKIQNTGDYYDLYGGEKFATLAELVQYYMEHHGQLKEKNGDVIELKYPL
Source text: In analogy to our previous works, we performed kinetic binding experiments by challenging the NSH2-CSH2 tandem with peptides mimicking different portions of Gab2, namely Gab2_608–620 (binding the NSH2 domain) and Gab2_637–649 (binding the CSH2 domain). From now on, the two peptides will be named, respectively, Gab2N and Gab2C, while the peptide mimicking the entire segment of Gab2 binding both SH2 domains, and corresponding to Gab2_608–649, will be named Gab2T. To compare data with our previous works, the experiments were performed in buffer Hepes 50 mM, NaCl 300 mM, 2 mM DTT, pH 7.2, at 10 °C, by following the FRET signal occurring through the excitation of the tryptophan residues in the NSH2-CSH2 tandem with light at 280 nm and following the change in fluorescence of the dansyl group covalently attached to the N-terminus of the peptides. […]
Kinetic experiments of binding between the NSH2, CSH2 and NSH2-CSH2 tandem and the peptides mimicking different portions of Gab2 were measured by monitoring FRET between the tryptophan, acting as a donor, and a dansyl group covalently attached to the N-terminus of the peptides, acting as acceptor. […] The excitation wavelength used was 280 nm while the fluorescence emission was collected using a 475 nm cutoff glass filter. […]

[2] = biological target: T2, NSH2-CSH2 tandem of SHP2 (Homo sapiens, UniProt Q06124); assay: Kinetic displacement of peptide from NSH2-CSH2 tandem by Gab2T; type: binding; conditions: for rate constant in displacement by Gab2T: pH 7.2, 10 °C
T2 construct: The constructs encoding the isolated NSH2 domain, the isolated CSH2 domain, and the NSH2-CSH2 tandem were subcloned in a pET28b+ plasmid vector; made in house; host or cells: Escherichia coli BL21 (DE3)
T2 sequence (Q06124 1-220 limits assumed): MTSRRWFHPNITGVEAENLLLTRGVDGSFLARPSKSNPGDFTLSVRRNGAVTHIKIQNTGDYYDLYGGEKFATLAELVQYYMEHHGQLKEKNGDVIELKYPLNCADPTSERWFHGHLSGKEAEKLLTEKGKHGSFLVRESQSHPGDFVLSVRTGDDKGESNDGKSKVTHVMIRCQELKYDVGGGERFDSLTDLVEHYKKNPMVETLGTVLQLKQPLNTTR
Source text: (§1) In analogy to our previous works, we performed kinetic binding experiments by challenging the NSH2-CSH2 tandem with peptides mimicking different portions of Gab2, namely Gab2_608–620 (binding the NSH2 domain) and Gab2_637–649 (binding the CSH2 domain). From now on, the two peptides will be named, respectively, Gab2N and Gab2C, while the peptide mimicking the entire segment of Gab2 binding both SH2 domains, and corresponding to Gab2_608–649, will be named Gab2T. To compare data with our previous works, the experiments were performed in buffer Hepes 50 mM, NaCl 300 mM, 2 mM DTT, pH 7.2, at 10 °C, by following the FRET signal occurring through the excitation of the tryptophan residues in the NSH2-CSH2 tandem with light at 280 nm and following the change in fluorescence of the dansyl group covalently attached to the N-terminus of the peptides.
We also resorted to monitoring the binding reaction between the NSH2-CSH2 tandem with the Gab2T peptide. […] To obtain information about the ability of the NSH2-CSH2 to bind Gab2T, we performed kinetic displacement experiments in order to test the ability of Gab2T to displace Gab2N and Gab2C. […] These two values are in great agreement with what was previously calculated in binding experiments of the isolated domains.
Kinetic experiments of binding between the NSH2, CSH2 and NSH2-CSH2 tandem and the peptides mimicking different portions of Gab2 were measured by monitoring FRET between the tryptophan, acting as a donor, and a dansyl group covalently attached to the N-terminus of the peptides, acting as acceptor. […] The excitation wavelength used was 280 nm while the fluorescence emission was collected using a 475 nm cutoff glass filter. […] The observed rate constants were calculated from the average of 3–6 single traces and by fitting the time-course for binding using a single exponential equation y=Aexp−kobs t+c where A is the amplitude of the kinetic trace, kobs the observed rate constant and c the final fluorescence value of the trace. […]

[3] = biological target: T2, NSH2-CSH2 tandem of SHP2; assay: Kinetic binding (stopped-flow, FRET Trp-dansyl) to the NSH2-CSH2 tandem; conditions: for kon (microscopic association rate constant): Hepes 50 mM, NaCl 300 mM, 2 mM DTT
Source text: as §1
First, to test whether the presence of the contiguous CSH2 affected the affinity of the NSH2 domain for Gab2, we mixed a constant concentration of dansylated Gab2N (1 µM) vs. increasing concentrations of NSH2-CSH2 (ranging from 2 µM to 9 µM). The obtained observed rate constant (kobs) as a function of the concentration of the NSH2-CSH2 tandem was fitted with a linear equation, the slope corresponding to the microscopic association rate constant (kon) and the intercept with the y-axis to the microscopic dissociation rate constant (koff). To directly measure the koff, we performed displacement experiments by rapidly mixing a preincubated complex of NSH2-CSH2 with dansylated Gab2N (both at a constant concentration of 2 µM) versus a high excess of non-dansylated Gab2N (50 µM).
We also resorted to monitoring the binding reaction between the NSH2-CSH2 tandem with the Gab2T peptide. […] To obtain information about the ability of the NSH2-CSH2 to bind Gab2T, we performed kinetic displacement experiments in order to test the ability of Gab2T to displace Gab2N and Gab2C. Thus, in two separate experiments, we rapidly mixed a preincubated complex of NSH2-CSH2 with Gab2N (both at a constant concentration of 2 µM) versus an excess of Gab2T (50 µM) and a preincubated complex of NSH2-CSH2 with Gab2C (both at constant concentrations of 2 µM and 10 µM, respectively) versus an excess of Gab2T (50 µM) (Figure 5C). Importantly, in the two experiments, we could calculate two different rate constants, respectively, of 1.2 ± 0.3 s^−1 in the case of Gab2N, and 82 ± 1 s^−1 in the case of Gab2C. These two values are in great agreement with what was previously calculated in binding experiments of the isolated domains.
Kinetic experiments of binding between the NSH2, CSH2 and NSH2-CSH2 tandem and the peptides mimicking different portions of Gab2 were measured by monitoring FRET between the tryptophan, acting as a donor, and a dansyl group covalently attached to the N-terminus of the peptides, acting as acceptor. The experiments were performed on a single-mixing SX-18 stopped-flow instrument (Applied Photophysics, Leatherhead, UK) recording the change of dansyl emission. The excitation wavelength used was 280 nm while the fluorescence emission was collected using a 475 nm cutoff glass filter. The binding experiments were carried out at 25 °C mixing a constant concentration of dansylated peptide (1 μM) versus increasing concentrations of NSH2, CSH2 and NSH2-CSH2 (ranging from 2 to 10 μM). The buffer used was Hepes 50 mM, NaCl 300 mM, pH 7.2. The observed rate constants were calculated from the average of 3–6 single traces and by fitting the time-course for binding using a single exponential equation y=Aexp−kobs t+c where A is the amplitude of the kinetic trace, kobs the observed rate constant and c the final fluorescence value of the trace. The dependences of kobs as a function of ligand concentrations were fitted with a linear equation kobs=kon ligand+koff where kon is the microscopic association rate constant, and koff the microscopic dissociation rate constant.

## Gab2C: peptide mimicking Gab2_637–649 (binding the CSH2 domain)
[1]; NSH2 domain mixed with different concentrations of Gab2C peptide
  binding to isolated NSH2 domain, kinetic traces: no kinetic traces could be recorded
[2]; preincubated NSH2-CSH2 (2 µM) with Gab2C (10 µM) vs excess Gab2T (50 µM)
  rate constant in displacement by Gab2T: 82 ± 1 s⁻¹

## Gab2N: peptide mimicking Gab2_608–620 (binding the NSH2 domain); used dansylated at the N-terminus and non-dansylated
[1]; isolated NSH2 domain, pH 7.2
  koff (microscopic dissociation rate constant): 1.8 ± 0.1 s⁻¹
[2]; preincubated NSH2-CSH2 with Gab2N (both 2 µM) vs excess Gab2T (50 µM)
  rate constant in displacement by Gab2T: 1.2 ± 0.3 s⁻¹
[3]; dansylated Gab2N 1 µM vs NSH2-CSH2 2 to 9 µM, no Gab2C, pH 7.2, 10 °C, excitation 280 nm, average of 3–6 traces
  kon (microscopic association rate constant): 3.73e+07 ± 800000 M⁻¹ s⁻¹
[3]; dansylated Gab2N vs NSH2-CSH2, in the presence of 10 µM Gab2C, pH 7.2, 10 °C
  kon (microscopic association rate constant): 1.64e+07 ± 200000 M⁻¹ s⁻¹
[3]; dansylated Gab2N vs NSH2-CSH2, in the presence of 20 µM Gab2C, pH 7.2, 10 °C
  kon (microscopic association rate constant): 1.44e+07 ± 200000 M⁻¹ s⁻¹
[3]; displacement of preincubated NSH2-CSH2/dansylated Gab2N (both 2 µM) by excess non-dansylated Gab2N (50 µM), pH 7.2, 10 °C
  koff (microscopic dissociation rate constant): 1.8 ± 0.1 s⁻¹
[3]; no Gab2C, pH 7.2
  KD, calculated as koff/kon, tandem compared to isolated NSH2 domain: lower KD

## Gab2T: peptide mimicking the entire segment of Gab2 binding both SH2 domains, corresponding to Gab2_608–649 (STGSVDYLALDFQPSSPSPHRKPSTSSVTSDEKVDYVQVDKE; UniProt Q9UQC2 608-649, looked up, fragment)
[2]; Gab2T 50 µM, pH 7.2
  displacement of Gab2N and Gab2C from NSH2-CSH2: able to displace both peptides
[3]; Gab2T not available in dansylated form
  kinetic binding to NSH2-CSH2, fluorescence change: did not return any change in fluorescence
